The target in data set [1] is T1, chloroplast ATP synthase (CF1FO) γ subunit (Spinacia oleracea, UniProt P05435 42-364, disulfide γCys240-γCys246 in the oxidized (IBZ) sample; free cysteines in the reduced (DTT) sample).
T1 construct: ATP synthase gamma chain, chloroplastic, Spinacia oleracea; endogenous subunit of the purified complex; One molecule for both redox states; also called central shaft γ subunit; source: purified from spinach leaves as part of the CF1FO complex (ammonium sulfate, sucrose gradient, anion exchange, SEC)
T1 sequence (looked up): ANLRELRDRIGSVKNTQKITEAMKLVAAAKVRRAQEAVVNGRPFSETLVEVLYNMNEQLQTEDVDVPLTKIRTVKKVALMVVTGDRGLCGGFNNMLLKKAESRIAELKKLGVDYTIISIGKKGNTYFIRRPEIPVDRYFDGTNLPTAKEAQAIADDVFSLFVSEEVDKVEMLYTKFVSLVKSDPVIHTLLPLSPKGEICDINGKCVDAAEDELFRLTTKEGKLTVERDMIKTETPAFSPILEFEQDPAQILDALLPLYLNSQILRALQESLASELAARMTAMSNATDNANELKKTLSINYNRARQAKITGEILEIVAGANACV
The data set can be described thus: cryo-EM structure. To be noted: both partners purified.

Data set [2] deals with the molecule itself. The data set can be described thus: cryo-EM structure.

B1: chloroplast ATP synthase (CF1FO) ε subunit (natural protein, Spinacia oleracea, UniProt P00833 1-134, looked up)
chain: MTLNLCVLTPNRSIWNSEVKEIILSTNSGQIGVLPNHAPTATAVDIGILRIRLNDQWLTLALMGGFARIGNNEITILVNDAERGSDIDPQEAQQTLEIAEANLRKAEGKRQKIEANLALRRARTRVEASNTISS
notes: ATP synthase epsilon chain, chloroplastic, Spinacia oleracea; endogenous subunit of the purified complex; source: purified from spinach leaves as part of the CF1FO complex (ammonium sulfate, sucrose gradient, anion exchange, SEC)
For B1, the binding result in data set [1] is on record as “binds”.

B2: chloroplast ATP synthase (CF1FO) subunit c (c14 ring) (natural protein, Spinacia oleracea, UniProt P69447 1-81, looked up)
chain: MNPLIAAASVIAAGLAVGLASIGPGVGQGTAAGQAVEGIARQPEAEGKIRGTLLLSLAFMEALTIYGLVVALALLFANPFV
notes: ATP synthase subunit c, chloroplastic, Spinacia oleracea; endogenous subunit of the purified complex; also called c ring; c-ring rotor; source: purified from spinach leaves as part of the CF1FO complex (ammonium sulfate, sucrose gradient, anion exchange, SEC); copies: 14
As usually defined, the stoichiometry N is a count of units in the complex or per binding partner. With B2, the “stoichiometry N” value in data set [2] amounted to 14.

The record behind these values is paper PMC7468127, “Structural basis of redox modulation on chloroplast ATP synthase” (Communications Biology, 2020).
